Measured values reported in paper PMC3867001.

Target: HIV-1 M group N-terminal capsid domain (HIV-1 M group) (UniProt P12493)
Test: ITC

Cyclophilin A (unacetylated, recombinant) (from UniProt P62937 1-165) (enzyme)
Kd: 7.5 µM | dH: -7.4 kcal/mol

Lys125-acetylated Cyclophilin A (recombinant) (from UniProt P62937 1-165) (enzyme)
Kd: 6.1 µM | dH: -4.6 kcal/mol
